In US7041283B1, “Methods of using immunophilin binding drugs to improve integration and survival of neuronal cell transplants” (University of Pittsburgh-Of the Commonwealth System of …, priority 2001, dated 2006):

B1: BDNF: brain-derived neurotrophic factor (Promega), neurotrophic protein (protein, UniProt P23560 129-247, looked up)
Neurotrophic factor BDNF: HSDPARRGELSVCDSISEWVTAADKKTAVDMSGGTVTVLEKVPVSKGQLKQYFYETKCNPMGYTKEGCRGIDKRHWNSQCRTTQSYVRALTMDSKKRIGWRFIRIDTSCVCTLTIKRGR
modifications: Neurotrophic factor BDNF
notes: brain-derived neurotrophic factor (Promega), neurotrophic protein

Test system: second trimester human fetal neuroglial cultures
Test: Second trimester human fetal neuroglial cultures treated with FK506 and/or BDNF; MAP-2/GFAP immunostaining and propidium iodide cell counts by laser confocal microscopy
Type: cell-based
Method: Surgical pathology fetal specimens were collected and processed in accordance with the University of Pittsburgh Human Tissue Committee guidelines. Human telencephalic tissues (18-21 weeks of gestation) were collected and placed in DMEM medium (Life Technologies Inc., Grand Island, N.Y.). […] Tissue processing followed a modified mouse brain dissociation protocol. Within 1 hour of collection, the brain material was placed in Ca^++-and Mg^++-free DPBS (Life Technologies), cleaned of meninges, rinsed and minced. Tissue fragments were incubated in 0.05% trypsin-EDTA with additives (Life Technologies) for 5 min at 37° C. and further dissociated. Trypsin inhibitor (10 mg/ml; Sigma, St. Louis, Mo.) was subsequently added, followed by centrifugation for 5 min at 250×g. After filtering through 70 μm nylon-mesh cell strainers (Becton Dickinson, Franklin Lakes, N.J.), the cell suspension was cleaned by gradient centrifugation through an 8% BSA (Sigma) layer (250×g, 10 min). A second filtering was performed using 70 μm and 40 μm nylon-mesh cell strainers (Becton Dickinson). The single cell suspension was counted on a hemocytometer using trypan blue exclusion, brought to a final density of 10^6 cells/ml and plated on poly-l-ornithine (Sigma) and laminin (Life Technologies) coated 12 mm glass coverslips (Fisher, Pittsburgh, PA) on 24-well plates (Becton Dickinson).
Throughout the experiments standard tissue culture techniques were used, in combination with the drug protocol. More specifically, cultures were incubated in 10% CO2 at 37° C. and fed every other day for 1, 5, 12, or 21 days with fresh NPMM (Bio Whittaker, San Diego, Calif.), followed by NPMM with or without various concentrations of FK506 (provided by Dr. A. Zeevi) and/or BDNF (5 ng/ml, Promega, Madison, Wis.).
In an attempt to identify the cell phenotype that is most affected by different treatments, the neuroglial cultures were immunostained for the neuronal marker MAP-2 and the astrocytic marker GFAP. After 7 days of treatment, cultures were washed with PBS and PBS with 0.05% Tween 20 (Sigma), fixed with 4% paraformaldehyde for 30 min and then incubated for 30 min with PBS with 0.2% BSA and 0.1% Triton X (Sigma). Without washing, cultures were incubated overnight at 4° C. with the primary antibodies mouse anti-MAP-2(1:500, Stemberger Monoclonals Inc., Baltimore, Md.) and rabbit anti-GFAP (1:100, Dako, Capinteria, Calif.). After thorough washing with PBS+0.05% Tween 20, a secondary antibody (FITC-conjugated goat anti- mouse and FITC- conjugated goat anti- rabbit) was applied for 2 hours (1:200, Jackson Immuno, West Grove, Pa.). All antibodies were diluted in common antibody diluent (ScyTek, Logan, Utah). RNase A (10 μg/ml; Sigma) was added during the secondary antibody incubation (20 min), followed by the nuclear stain propidium iodide (5 μg/ml, Sigma). Propidium iodide was used to allow quantification of cell numbers for each treatment condition, using LCM and ImageSpace software as described below. Coverslips were then washed and mounted on glass slides (Fisher) using gelvatol fluorescence mounting medium.
A quantitative assessment of the results (i.e., the numbers of cell nuclei stained with propidium iodide and areas covered by immunofluorescent marker staining) using laser confocal microscopy and ImageSpace software (Molecular Dynamics, Sunnyvale, Calif.) was carried out as follows: six randomly chosen fields were analyzed per coverslip (well). The Argon/Krypton laser confocal microscope 40× objective with oil immersion lens (Model 2001, Molecular Dynamics) was used. Images of 512×512 pixels were collected at a pixel size of […]. Vertical sections were acquired in order to define vertical borders for the collection of Z-series. The step size between adjacent sections was […]. FITC was excited with a wavelength of 488 nm and collected with a 530DF30 filter. Propidium iodide was excited with a wavelength of 568 nm and collected with a 590DFLP filter. […]

| Molecule | toxic effects (higher concentrations of FK506) | neurite outgrowth / neuronal processes extension | enhancement of neuronal differentiation (5 ng/ml, 7 days of treatment) | MAP-2 surface/cell number ratio (5 ng/ml, 7 days of treatment starting at DIC 12, vs control) | GFAP surface/cell number ratio (GFAP expression) (7 days of treatment, vs control) | number of neurons (BDNF: NeuN immunostaining, unpublished observations) |
| --- | --- | --- | --- | --- | --- | --- |
| C=CC[C@@H]1/C=C(\C)C[C@H](C)C[C@H](OC)[C@H]2O[C@@](O)(C(=O)C(=O)N3CCCC[C@H]3C(=O)O[C@H](/C(C)=C/[C@@H]3CC[C@@H](O)[C@H](OC)C3)[C@H](C)[C@@H](O)CC1=O)[C@H](C)C[C@@H]2OC [FK506, reference compound] | did not appear to exert toxic effects | – | – | – | – | – |
| B1 | – | tends to increase | not significant | not significantly different from control | decreased | modestly increasing |
